According to patent publication US20060063234A1 (CRUCELL HOLLAND B V, published 2006):

Biological target: T1, EpCAM (epithelial cell adhesion molecule), human tumor antigen, on LS174T colon carcinoma cells (human, UniProt P16422 24-314)
T1 sequence (looked up): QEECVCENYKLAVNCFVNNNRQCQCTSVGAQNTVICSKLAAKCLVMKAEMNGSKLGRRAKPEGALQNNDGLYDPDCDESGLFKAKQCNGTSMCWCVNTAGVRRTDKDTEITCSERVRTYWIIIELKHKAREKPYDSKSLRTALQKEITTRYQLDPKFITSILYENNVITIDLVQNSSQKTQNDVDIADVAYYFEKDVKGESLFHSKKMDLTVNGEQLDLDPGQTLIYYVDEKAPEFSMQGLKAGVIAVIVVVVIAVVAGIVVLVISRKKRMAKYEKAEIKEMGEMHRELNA
Experiment: cell-based or functional assay

B1: anti-EpCAM IgM (PER.C6 produced recombinant human IgM, encoded by pEpcamIgM) (antibody)
light: QVQLVQSGAEVKKPGSSVRVSCKASGGTFSSYAISWVRQAPGQGLEWMGGIIPIFGTANYAQKFQGRVTITADESTSTAYMELSSLRSEDTAVYYCARDPFLHYWGQGTLVTVSTGSASAPTLFPLVSCENSPSDTSSVAVGCLAQDFLPDSITFSWKYKNNSDISSTRGFPSVLRGGKYAATSQVLLPSKDVMQGTDEHVVCKVQHPNGNKEKNVPLPVIAELPPKVSVFVPPRDGFFGNPRKSKLICQATGFSPRQIQVSWLREGKQVGSGVTTDQVQAEAKESGPTTYKVTSTLTIKESDWLSQSMFTCRVDHRGLTFQQNASSMCVPDQDTAIRVFAIPPSFASIFLTKSTKLTCLVTDLTTYDSVTISWTRQNGEAVKTHTNISESHPNATFSAVGEASICEDDWNSGERFTCTVTHTDLPSPLKQTISRPKGVALHRPDVYLLPPAREQLNLRESATITCLVTGFSPADVFVQWMQRGQPLSPEKYVTSAPMPEPQAPGRYFAHSILTVSEEEWNTGETYTCVVAHEALPNRVTERTVDKSTGKPTLYNVSLVMSDTAGTCY
heavy: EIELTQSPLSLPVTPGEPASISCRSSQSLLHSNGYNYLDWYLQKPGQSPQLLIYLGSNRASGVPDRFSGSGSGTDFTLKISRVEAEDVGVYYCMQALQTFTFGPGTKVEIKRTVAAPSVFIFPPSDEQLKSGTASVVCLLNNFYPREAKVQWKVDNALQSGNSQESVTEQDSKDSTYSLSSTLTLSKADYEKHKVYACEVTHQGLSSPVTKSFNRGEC
complement dependent cytotoxicity on LS174T cells: potency relative to anti-EpCAM IgG: ~10 fold
